Data on five molecules can be found in PMC9261936 (Biochemistry, 2022).

The Vmax is the top rate of the reaction or transport when substrate is in excess.

In data set [1] the target is T1, SaPrp (Staphylococcus aureus, UniProt Q2FXS9, N63Q).
T1 sequence (Q2FXS9 1-106 N63Q): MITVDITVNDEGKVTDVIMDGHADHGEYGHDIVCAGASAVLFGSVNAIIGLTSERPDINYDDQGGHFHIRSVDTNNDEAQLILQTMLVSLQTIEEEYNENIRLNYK
As to the kind of experiment: Michaelis–Menten steady-state kinetics, cleavage of FITC-[…]-Dnp. It counts as biochemical.

The subject of data set [2] is SaPrp. As to the kind of experiment: Covalent complex formation with SaPrp, mass spectrometry. It counts as biochemical, Staphylococcus aureus. The note with it: 2.6-fold molar excess over SaPrp, 1 h, room temperature.
For data set [3], the target named is T1, SaPrp. It counts as biochemical. The note with it: compound at 100 μM, FITC-conjugated peptide.
The conditions of data set [4]: other cysteine proteases, means and standard deviations; cited from earlier work.

Primed or numbered codes have the meaning given here. *: point of attachment. FITC = O=C1OC2(c3ccc(O)cc3Oc3cc(O)ccc32)c2ccc(NC(=S)*)cc21; Dnp′ = not defined here; CH2Cl = ClC*

For the molecule “FITC-KLNLQFFASKK-Dnp ({FITC}-KLNLQFFASKK-{Dnp′}) [Compound 1]”, the Vmax with SaPrp [1] (FITC-KLNLQFFASKK-Dnp substrate 0.2–20 μM, 48.2 nM SaPrp (monomer)) stood at 11 ± 4.0 nM/s. For the same molecule, the kcat with SaPrp [1] (FITC-KLNLQFFASKK-Dnp substrate, ET constrained to 42.8 nM active sites) came out at 0.26 ± 0.05 s^–1.
Take “acetyl-KLNLQFF-chloromethylketone (Ac-KLNLQFF-CH2Cl; SMILES CC(=O)N[C@@H](CCCCN)C(=O)N[C@@H](CC(C)C)C(=O)N[C@@H](CC(N)=O)C(=O)N[C@@H](CC(C)C)C(=O)N[C@@H](CCC(N)=O)C(=O)N[C@@H](Cc1ccccc1)C(=O)N[C@@H](Cc1ccccc1)C(=O)CCl) [Ac-KLNLQFF-CMK]”: in the data set on SaPrp [2], the “Formation of the covalent complex with SaPrp” value is recorded as more than 95%.
With `COC([CH2][Hg+])CNC(=O)c1ccccc1OCC(=O)O.[OH-]` (stereo not drawn) [Compound 4, Mersalyl Acid], the “Inhibition of Prp at 100 μM” value at SaPrp [3] is given as “Prp could not cleave the peptide”.

B1: μ-calpain: literature comparator cysteine protease (protein, UniProt P07384 2-714; P04632 1-268, looked up)
Calpain-1 catalytic subunit: SEEIITPVYCTGVSAQVQKQRARELGLGRHENAIKYLGQDYEQLRVRCLQSGTLFRDEAFPPVPQSLGYKDLGPNSSKTYGIKWKRPTELLSNPQFIVDGATRTDICQGALGDCWLLAAIASLTLNDTLLHRVVPHGQSFQNGYAGIFHFQLWQFGEWVDVVVDDLLPIKDGKLVFVHSAEGNEFWSALLEKAYAKVNGSYEALSGGSTSEGFEDFTGGVTEWYELRKAPSDLYQIILKALERGSLLGCSIDISSVLDMEAITFKKLVKGHAYSVTGAKQVNYRGQVVSLIRMRNPWGEVEWTGAWSDSSSEWNNVDPYERDQLRVKMEDGEFWMSFRDFMREFTRLEICNLTPDALKSRTIRKWNTTLYEGTWRRGSTAGGCRNYPATFWVNPQFKIRLDETDDPDDYGDRESGCSFVLALMQKHRRRERRFGRDMETIGFAVYEVPPELVGQPAVHLKRDFFLANASRARSEQFINLREVSTRFRLPPGEYVVVPSTFEPNKEGDFVLRFFSEKSAGTVELDDQIQANLPDEQVLSEEEIDENFKALFRQLAGEDMEISVKELRTILNRIISKHKDLRTKGFSLESCRSMVNLMDRDGNGKLGLVEFNILWNRIRNYLSIFRKFDLDKSGSMSAYEMRMAIESAGFKLNKKLYELIITRYSEPDLAVDFDNFVCCLVRLETMFRFFKTLDTDLDGVVTFDLFKWLQLTMFA
Calpain small subunit 1: MFLVNSFLKGGGGGGGGGGGLGGGLGNVLGGLISGAGGGGGGGGGGGGGGGGGGGGTAMRILGGVISAISEAAAQYNPEPPPPRTHYSNIEANESEEVRQFRRLFAQLAGDDMEVSATELMNILNKVVTRHPDLKTDGFGIDTCRSMVAVMDSDTTGKLGFEEFKYLWNNIKRWQAIYKQFDTDRSGTICSSELPGAFEAAGFHLNEHLYNMIIRRYSDESGNMDFDNFISCLVRLDAMFRAFKSLDKDGTGQIQVNIQEWLQLTMYS
Regarding B1, in data set [4], the kcat is 0.015 ± 0.002 s^–1.

B2: papain: literature comparator cysteine protease (protein, UniProt P00784 134-345, looked up)
Papain: IPEYVDWRQKGAVTPVKNQGSCGSCWAFSAVVTIEGIIKIRTGNLNEYSEQELLDCDRRSYGCNGGYPWSALQLVAQYGIHYRNTYPYEGVQRYCRSREKGPYAAKTDGVRQVQPYNEGALLYSIANQPVSVVLEAAGKDFQLYRGGIFVGPCGNKVDHAVAAVGYGPNYILIKNSWGTGWGENGYIRIKRGTGNSYGVCGLYTSSFYPVKN
As for B2, the kcat in data set [4] is on record as 0.0162 ± 0.000135 s^–1.
